This is an account of results in patent publication US20230018888A1.

Changes are numbered by the printed parent chain.

The assay addresses Adhesion G Protein-coupled Receptor E2 (ADGRE2), overexpressed on murine lymphoma EL4 cells (human) (UniProt Q9UHX3). In words: flow cytometry, scFv titrated on EL4 cells overexpressing ADGRE2. (A flow cytometer gives signals particle by particle.)
UniProt Q9UHX3, sequence (Q9UHX3 24-823): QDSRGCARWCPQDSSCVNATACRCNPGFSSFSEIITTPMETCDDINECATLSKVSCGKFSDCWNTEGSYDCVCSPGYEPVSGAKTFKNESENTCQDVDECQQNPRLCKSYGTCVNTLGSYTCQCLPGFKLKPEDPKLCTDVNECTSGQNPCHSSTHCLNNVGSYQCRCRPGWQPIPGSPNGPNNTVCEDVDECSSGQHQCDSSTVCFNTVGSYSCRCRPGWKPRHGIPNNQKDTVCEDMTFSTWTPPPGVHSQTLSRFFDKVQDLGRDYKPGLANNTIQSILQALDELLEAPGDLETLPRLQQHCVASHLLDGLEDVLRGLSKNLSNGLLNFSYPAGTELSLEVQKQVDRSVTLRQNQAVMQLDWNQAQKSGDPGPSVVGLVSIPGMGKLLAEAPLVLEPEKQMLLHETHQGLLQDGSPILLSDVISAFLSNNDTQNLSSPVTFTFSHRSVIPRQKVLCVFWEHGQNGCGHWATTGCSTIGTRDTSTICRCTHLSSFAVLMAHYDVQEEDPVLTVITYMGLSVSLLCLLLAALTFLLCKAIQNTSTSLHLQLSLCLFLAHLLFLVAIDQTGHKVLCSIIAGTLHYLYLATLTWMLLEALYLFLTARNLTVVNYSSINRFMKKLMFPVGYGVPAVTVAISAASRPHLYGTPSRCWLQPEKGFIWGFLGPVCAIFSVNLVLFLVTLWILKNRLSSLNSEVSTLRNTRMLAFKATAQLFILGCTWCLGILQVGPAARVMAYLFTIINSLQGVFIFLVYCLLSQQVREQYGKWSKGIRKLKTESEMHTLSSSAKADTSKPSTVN

B1: anti-ADGRE2 scFv E (scFv, part only; not given: VH-VL linker, V domains shown, not shown: another chain or arm of the molecule; small tags and cut ends)
VH: QVQLQQSGAEVKKPGASVKVSCKASGYTFTNYWMQWVRQAPGQGLEWIGAVYPGDGDTRHTQKFKGRVTMTADKSTSTVYMELSSLRSEDTAVYYCARGFTAYGMDYWGQGTLVTVSS
VL: QIVLTQSPATLSLSPGERATLTCSASSSVSYMHWYQQKPGLSPKRWIYDTSKLASGVPDRFSGSGSGTDYTFTIRRLEPEDFATYYCQQWSSNPLTFGQGTKVEIK
As usually defined, the EC50 is the midpoint of the concentration-response curve. A higher EC50 goes with a need for much substance. Molecule B1 returned an EC50 of 10.6 nM.

B2: anti-ADGRE2 scFv M (scFv, part only; not given: VH-VL linker, V domains shown, not shown: another chain or arm of the molecule; small tags and cut ends)
VH: B1 VH with V20L, V37I, H60Y, K65Q, V68A, M70L, K74T, V79A, L83V, L113T
VL: EIVLTQSPATLSASPGERVTMSCSASSSVSYMHWYQQKPGLAPRRWIYDTSKLASGVPDRFSGSGSGTDYTFTISRMEPEDFATYYCQQWSSNPLTFGGGTKLEIK
The molecule B2 had an EC50 of 16.4 nM.
